Molecular target: Full-length Drosophila ATL (Drosophila) (UniProt Q9VC57)
Sequence (Q9VC57 whole entry): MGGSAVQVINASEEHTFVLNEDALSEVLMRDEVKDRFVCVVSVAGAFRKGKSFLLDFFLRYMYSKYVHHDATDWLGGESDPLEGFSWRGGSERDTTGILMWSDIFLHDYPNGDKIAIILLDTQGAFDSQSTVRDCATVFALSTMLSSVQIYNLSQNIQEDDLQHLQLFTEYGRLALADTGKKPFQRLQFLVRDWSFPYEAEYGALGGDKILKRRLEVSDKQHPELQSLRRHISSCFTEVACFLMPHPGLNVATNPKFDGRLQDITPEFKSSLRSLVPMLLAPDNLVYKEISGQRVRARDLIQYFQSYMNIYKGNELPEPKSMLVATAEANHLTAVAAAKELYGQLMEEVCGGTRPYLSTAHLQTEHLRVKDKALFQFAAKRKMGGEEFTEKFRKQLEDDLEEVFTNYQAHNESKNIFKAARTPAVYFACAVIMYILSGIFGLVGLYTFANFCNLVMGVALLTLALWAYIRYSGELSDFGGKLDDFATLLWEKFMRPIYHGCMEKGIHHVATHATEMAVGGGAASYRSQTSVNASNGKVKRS

Q: With dmLnp-NT-Flag-GST (domain or fragment) as the substance, how does the GTP-dependent fusion of dmATL donor and acceptor vesicles (NBD dequenching), dmLnp-NT at 5 times the concentration of dmATL, against samples without Lnp read?
A: 50%
